Patent US20260209363A1 (Chugai, published 2026)
Values belong to the binder of their own block, whether it stands above or below them.

What was measured:
Mouse MOG (R&D system) = target: T1, Mouse MOG (R&D system) (mouse, UniProt Q61885 29-156, limits assumed); experiment: SPR (Biacore T200), antibody captured by anti-human Fc antibody, mouse MOG as analyte, 25 degrees C, no albumin
T1 construct: also called mouse soluble MOG; soluble MOG
T1 sequence (looked up): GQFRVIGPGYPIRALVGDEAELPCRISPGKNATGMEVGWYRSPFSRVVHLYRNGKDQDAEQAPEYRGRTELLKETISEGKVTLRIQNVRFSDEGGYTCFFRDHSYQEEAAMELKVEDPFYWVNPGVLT
Procedure: Binding activities of the antibodies produced in Example 10 against mouse MOG were assessed using Biacore T200 (Cytiva).
As the running buffer, 50 mM Na Phosphate (pH 7.4), 150 mM NaCl, 0.05% Tween 20, and 0.005% NaN₃ was used, and the assessment was performed at 25 degrees C. First, anti-human Fc antibody (Cytiva) was used as a ligand-capturing molecule. Anti-human Fc antibody (Cytiva) was solid-phased on a Series S Sensor Chip CM4 (Cytiva) using an Amine Coupling Kit (Cytiva). Antibody solutions prepared using the running buffer was allowed to interact with this CM4 sensor chip to capture approximately 480 RU of the antibody. Mouse MOG (R&D system) was diluted to 0, 10, 40, 160, and 640 nM with the running buffer, and then bound to the captured antibody. The chip was regenerated using 3 M MgCl₂, and measurements were performed by repeatedly capturing antibodies. Dissociation constant (KD) of the respective antibodies for mouse MOG was calculated using Biacore T200 Evaluation Software 2.0. Specifically, the association rate constant ka (L/mol/s) and the dissociation rate constant kd (1/s) were calculated by global fitting of the sensorgrams obtained by measurement with the 1:1 Langmuir binding model, and the dissociation constant KD (mol/L) was calculated from these values.

[1] = target: T2, His-tagged mouse MOG (8536-MO, R&D Systems) (mouse, UniProt Q61885 29-156, limits assumed); experiment: Gyrolab xP immunoassay of antibody-antigen complex in C57BL/6J mouse plasma (albumin present), 2 nM antibody, 9 nM His-tagged mouse MOG
T2 construct: Bought; also called mouse soluble MOG; not shown: His tag
T2 sequence (looked up): T1 sequence (looked up)
Procedure: First, to bind the albumin-binding domain to albumin in plasma, each of the anti-mouse MOG antibodies mentioned above were diluted to 8 nM using C57BL/6J mouse plasma, and then incubated at room temperature for 40 minutes. Next, for binding of the anti-mouse MOG antibody to the target antigen, one equivalent of His-tagged mouse MOG (8536-MO, R&D Systems) diluted to 38 nM in mouse plasma was added to the antibody solutions, and then the solutions were incubated at room temperature for 1 hour 25 minutes.
To detect the antibody-antigen complexes, first, the anti-delta GK antibody (AF647-anti-delta GK) was labeled using an Alexa flour 647 labeling kit (A20186, Thermo Fisher Scientific) according to the attached protocols. […] (the final concentrations were 2 nM for the antibody, 9 nM for His-tagged mouse MOG, and 67 nM for AF647-anti-delta GK).
Measurement of antigen-antibody complexes were performed using Gyrolab xP. For the measurements using Gyrolab xP, Gyrolab Bioaffy 200 (P0004180, Gyros Protein Technologies) was used as the measurement disc. Biotinylated anti-His-tagged antibody (BAM050, R&D Systems) diluted to 10 micro g/mL with PBS 0.05% Tween 20 was added to the measurement disc, and then solid-phased on the reaction layer in the disc. A mixed solution of the labeled anti-delta GK antibody, anti-mouse MOG antibody (albumin switch molecule), and mouse MOG, incubated as described above, was added to the disc, and the anti-mouse MOG antibody-mouse MOG-AF647-anti-delta GK complex was captured by the solid-phased antibody. The amount of the captured complex was detected by the fluorescence signal of AF647 (Detect PMT 25%). The fluorescence signal of AF647 was analyzed by Gyro Evaluator (version 3.6.2.30, Gyros Protein Technologies).

- Kd (Mouse MOG (R&D system)): 1.91 nM
- koff (Mouse MOG (R&D system)): 1.39e-05 s⁻¹
- kon (Mouse MOG (R&D system)): 7260 M⁻¹ s⁻¹
- decrease in the signal derived from the complex, compared to MOG//IC17 [1]: 90%
B1: ABD094(H/L)-MOG//IC17 (bispecific antibody, human IgG1, kappa)
heavy 1: LAEAKEAANAELDSYGVSDFYKRLIDKAKTVEGVEALKDAILAALPRVTLRESGPTLVKPTQTLTLTCTFSGFSLSTSGVGVGWIRQPPGKALEWLALIFWDDDSHYSPSLKSRLTITKDTSKNQVVLTMTNMDPVDTATYYCARYYFGSGSYFPSYWYFDLWGRGTLVTVSSASTKGPSVFPLAPSSKSTSGGTAALGCLVEDYFPEPVTVSWNSGALTSGVHTFPAVLQSSGLYSLSSVVTVPSSSLGTQTYICNVNHKPSNTKVDERVEPKSCDKTHTCPPCPAPELRRGPSVFLFPPKPKDTLMISRTPEVTCVVVDVSHEDPEVKFNWYVDGVEVHNAKTKPREEQYNSTYRVVSVLTVLHQDWLNGKEYKCKVSNKALPAPIEKTISKAKGQPREPQVCTLPPSREEMTKNQVSLSCAVKGFYPSDIAVEWESNGQPENNYKTTPPVLDSDGSFFLVSKLTVDKSRWQQGNVFSCSVMHEALHNHYTQKSLSLSP
light 1: not shown
heavy 2: not shown
light 2: QVQLQQSGPQLVRPGASVKISCKASGYSFTSYWMHWVNQRPGQGLEWIGMIDPSYSETRLNQKFKDKATLTVDKSSSTAYMQLSSPTSEDSAVYYCALYGNYFDYWGQGTTLTVSSASVAAPSVFIFPPSDEQLKSGTASVVCLLNNFYPREAKVQWKVDNALQSGNSQESVTEQDSKDSTYSLSSTLTLSKADYEKHKVYACEVTHQGLSSPVTKSFNRGEC
notes: also called ABD094(H/L)-MOG307//IC17; anti-MOG albumin switch molecule

- Kd (Mouse MOG (R&D system)): 5.53 nM
- koff (Mouse MOG (R&D system)): 9.46e-06 s⁻¹
- kon (Mouse MOG (R&D system)): 1710 M⁻¹ s⁻¹
- decrease in the signal derived from the complex, compared to MOG//IC17 [1]: 83%
B2: ABD094(H/L).N10-MOG//IC17 (bispecific antibody, human IgG1, kappa)
heavy 1: LAEAKEAANAELDSYGVSDFYKRLIDKAKTVEGVEALKDAILAALPGRVTLRESGPTLVKPTQTLTLTCTFSGFSLSTSGVGVGWIRQPPGKALEWLALIFWDDDSHYSPSLKSRLTITKDTSKNQVVLTMTNMDPVDTATYYCARYYFGSGSYFPSYWYFDLWGRGTLVTVSSASTKGPSVFPLAPSSKSTSGGTAALGCLVEDYFPEPVTVSWNSGALTSGVHTFPAVLQSSGLYSLSSVVTVPSSSLGTQTYICNVNHKPSNTKVDERVEPKSCDKTHTCPPCPAPELRRGPSVFLFPPKPKDTLMISRTPEVTCVVVDVSHEDPEVKFNWYVDGVEVHNAKTKPREEQYNSTYRVVSVLTVLHQDWLNGKEYKCKVSNKALPAPIEKTISKAKGQPREPQVCTLPPSREEMTKNQVSLSCAVKGFYPSDIAVEWESNGQPENNYKTTPPVLDSDGSFFLVSKLTVDKSRWQQGNVFSCSVMHEALHNHYTQKSLSLSP
light 1: not shown
heavy 2: not shown
light 2: B1 light 2
notes: ABD094 linked via N10 linker (G) at VH and VL N-termini of the MOG arm; also called ABD094.N10(H/L)-MOG//IC17; ABD094(H/L).N10-MOG307//IC17

- Kd (Mouse MOG (R&D system)): 0.0607 nM
- koff (Mouse MOG (R&D system)): 3.46e-07 s⁻¹
- kon (Mouse MOG (R&D system)): 5700 M⁻¹ s⁻¹
- decrease in the signal derived from the complex, compared to MOG//IC17 [1]: 79%
B3: ABD094(H/L).N02-MOG//IC17 (bispecific antibody, human IgG1, kappa)
heavy 1: LAEAKEAANAELDSYGVSDFYKRLIDKAKTVEGVEALKDAILAALPGGGGSRVTLRESGPTLVKPTQTLTLTCTFSGFSLSTSGVGVGWIRQPPGKALEWLALIFWDDDSHYSPSLKSRLTITKDTSKNQVVLTMTNMDPVDTATYYCARYYFGSGSYFPSYWYFDLWGRGTLVTVSSASTKGPSVFPLAPSSKSTSGGTAALGCLVEDYFPEPVTVSWNSGALTSGVHTFPAVLQSSGLYSLSSVVTVPSSSLGTQTYICNVNHKPSNTKVDERVEPKSCDKTHTCPPCPAPELRRGPSVFLFPPKPKDTLMISRTPEVTCVVVDVSHEDPEVKFNWYVDGVEVHNAKTKPREEQYNSTYRVVSVLTVLHQDWLNGKEYKCKVSNKALPAPIEKTISKAKGQPREPQVCTLPPSREEMTKNQVSLSCAVKGFYPSDIAVEWESNGQPENNYKTTPPVLDSDGSFFLVSKLTVDKSRWQQGNVFSCSVMHEALHNHYTQKSLSLSP
light 1: not shown
heavy 2: not shown
light 2: B1 light 2
notes: ABD094 linked via N02 linker at VH and VL N-termini of the MOG arm; also called ABD094.N02(H/L)-MOG//IC17
